Source: PMC5709234
Where “and” joins values, the source holds several entries; their conditions need not be identical. Equal values may be shown once. Read-outs that look alike come from different tables or passages of the source. Each block holds one substance with its values, some of them ahead of it.

Experiments:
Assay in all cases: native MS
[1] = target: Alcohol dehydrogenase 1 (S. cerevisiae) (S. cerevisiae) (UniProt P00330)
[2] = target: Alcohol dehydrogenase 1 (S. cerevisiae) (S. cerevisiae) (UniProt P00330); remark: listed apart in the source
[3] = target: Trastuzumab light chain, dissociated from the mAb
[4] = target: Truncated alcohol dehydrogenase 1 (S. cerevisiae) (S. cerevisiae)

Sequence of Truncated alcohol dehydrogenase 1 (S. cerevisiae) (domain or fragment) (P00330 2-348): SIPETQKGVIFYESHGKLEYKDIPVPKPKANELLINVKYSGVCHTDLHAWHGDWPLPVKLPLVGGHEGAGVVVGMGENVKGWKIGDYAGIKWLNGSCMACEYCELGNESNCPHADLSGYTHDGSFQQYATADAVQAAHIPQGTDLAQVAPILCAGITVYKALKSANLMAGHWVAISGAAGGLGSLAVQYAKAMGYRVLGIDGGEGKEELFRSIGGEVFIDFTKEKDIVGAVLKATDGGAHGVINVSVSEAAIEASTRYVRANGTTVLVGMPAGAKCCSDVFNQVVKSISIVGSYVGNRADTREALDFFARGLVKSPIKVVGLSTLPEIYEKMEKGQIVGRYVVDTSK

- stoichiometry N [1]: 2 and 4
- percent detected as homotetramer [2]: 92%
- stoichiometry N [2]: 4
Substance: Alcohol dehydrogenase 1 (S. cerevisiae) (from UniProt P00330 2-348) (enzyme)

- stoichiometry N [3]: 2
Substance: Trastuzumab light chain, dissociated from the mAb (domain or fragment)

- stoichiometry N [4]: 4
Substance: Truncated alcohol dehydrogenase 1 (S. cerevisiae) (domain or fragment)
